We go through 2 molecules from US20100260678A1.

Holding throughout (conditions): remark: other sources report otherwise
The target in assay [1] is T1, biotinylated full-length human IGF-I receptor, captured on streptavidin (human), P08069. Briefly: similar ELISA binding titration on human IGF-I receptor.
Assay [2] addresses human IGF-I receptor on human tumor cells (human), P08069. The assay can be described thus: IGF-I displacement assay on MCF-7 cells at 4° C., 10-100 µg/mL antibody, capture ELISA of the lysate.
For assay [3] the target is unchanged. The assay can be described thus: IGF-I displacement assay on MCF-7 cells at 37° C., 10-100 µg/mL antibody, capture ELISA of the lysate. Background: In an ELISA, binding on a coated surface is turned into a signal by an enzyme label.
Assay [4] has as its target T1, biotinylated full-length human IGF-I …. The assay can be described thus: ELISA titration on biotinylated human IGF-I receptor captured on streptavidin; non-linear regression for one-site binding.

B1: Fab fragment of EM164 antibody (Fab, V domains shown)
VH: QVQLQQSGAELVKPGASVKLSCKASGYTFTSYWMHWVKQRPGQGLEWIGEINPSNGRTNYNEKFKRKATLTVDKSSSTAYMQLSSLTSEDSAVYYFARGRPDYYGSSKWYFDVWGAGTTVTVS
VL: DVLMTQTPLSLPVSLGDQASISCRSSQSIVHSNVNTYLEWYLQKPGQSPKLLIYKVSNRFSGVPDRFSGSGSGTDFTLRISRVEAEDLGIYYCFQGSHVPPTFGGGTKLEIKR
modifications: here or on the partner: biotinylated with PEO-maleimide-biotin reagent (sites not given)
The Kd is the free concentration of one partner at which half of the binding sites on the other are occupied at equilibrium, for simple one-to-one binding. In turn, B1 registered a dissociation constant (Kd) in assay [1] of 0.3 nM.

B2: murine anti-IGF-I receptor antibody EM164 (antibody, V domains shown)
VH: B1 VH
VL: B1 VL
Consider B2, for which the percent displacement of pre-bound biotinylated IGF-I came out at 50% in assay [2] and 90% in assay [3]. This molecule came in with an equilibrium dissociation constant (Kd) in assay [4] of 0.1 nM.
